Patent publication US20150174169

Columns and labels:
[1] = system: AAVS1 ZFN pair (ZFN-L/ZFN-R, PPP1R12C intron 1) (synthetic construct); experiment: cell_activity; details: CD34+ cord blood cells, Cel-1 mismatch assay, +/-3.8
[2] = system: IL2RG ZFN pair (ZFN-L/ZFN-R, exon 5) (synthetic construct); experiment: cell_activity; details: in vitro sample A

AAVS1 ZFN target site
activity [1]: 23.8 % NHEJ

IL2RG ZFN target site
activity ([2]; deep sequencing, B 61.18, G 45.60, Cel-1 assay 26.3+/-2.7 (p192)): 54.6 % NHEJ

SCARB1 off-target site
activity ([2]; B 0.70, G ns, ns in mouse): 0.17 % NHEJ

SLC31A1 off-target site
activity ([2]; B and G ns, mouse C0 0.02): 0.61 % NHEJ
